Source: publication PMC13233820, “Recruitment of Mre11 to recombination sites during meiosis” (Nature Communications, 2026)

Columns and labels:
HisSUMO-Mer2 (wild type) = test: Co-expression pull-down assay (NiNTA, anti-MBP immunoblot); type: binding, Saccharomyces cerevisiae; details: co-expressed in E. coli
Protocol: Wild-type and mutant MBP-tagged Mre11-C49 and HisSUMO-tagged Mer2 were co-expressed in 50 mL of E. coli BL21 cultures and purified by affinity chromatography on Ni-NTA resin following a procedure similar to that described above. Briefly, cells were lysed by sonication and centrifuged at maximum speed for 30 mins at 4 °C on a table-top centrifuge. A small fraction of the supernatant was collected as ‘Input’ and the remainder was incubated with 120 µL Ni-NTA resin, pre-equilibrated with wash buffer (25 mM HEPES pH 7.5, 20 mM imidazole, 0.1 mM DTT, 0.1 mM PMSF, 10% glycerol), for 1 hour on a rotating wheel at 4 °C. The resin was washed twice with 2 ml in batch and five times with 2 ml on column before eluting with 250 µL of 500 mM imidazole in wash buffer. Input and elution fractions were separated by SDS-PAGE followed by immunoblotting with primary murine anti-MBP monoclonal antibody at 1:10,000 dilution (E8032S, NEB) and secondary goat anti-mouse IgG-HRP conjugated at 1:10,000 dilution (AP308P, Chemicon).

Mer2 = test: Yeast two-hybrid; type: binding, Saccharomyces cerevisiae; details: SC-Leu-Ura-His + 25 mM 3-AT
Protocol: Bait and prey plasmids were co-transformed into yWL365 using the standard ‘LiAc’-based transformation and plated on SC-Leu-Ura selective media. At least four independent transformants were tested for Mer2-Mre11 interaction by spotting a dilution series on SC-Leu- Ura-His + 25 mM 3-AT (3-amino-1,2,4-triazole) and growing for 4-5 days at 30 °C.

B1: Mre11-LLK: Mre11 (or its C49 fragment) with LLK residues mutated to alanine (protein, UniProt P32829 1-692, looked up, variant L683A L686A K690A)
Double-strand break repair …: MDYPDPDTIRILITTDNHVGYNENDPITGDDSWKTFHEVMMLAKNNNVDMVVQSGDLFHVNKPSKKSLYQVLKTLRLCCMGDKPCELELLSDPSQVFHYDEFTNVNYEDPNFNISIPVFGISGNHDDASGDSLLCPMDILHATGLINHFGKVIESDKIKVVPLLFQKGSTKLALYGLAAVRDERLFRTFKDGGVTFEVPTMREGEWFNLMCVHQNHTGHTNTAFLPEQFLPDFLDMVIWGHEHECIPNLVHNPIKNFDVLQPGSSVATSLCEAEAQPKYVFILDIKYGEAPKMTPIPLETIRTFKMKSISLQDVPHLRPHDKDATSKYLIEQVEEMIRDANEETKQKLADDGEGDMVAELPKPLIRLRVDYSAPSNTQSPIDYQVENPRRFSNRFVGRVANGNNVVQFYKKRSPVTRSKKSGINGTSISDRDVEKLFSESGGELEVQTLVNDLLNKMQLSLLPEVGLNEAVKKFVDKDEKTALKEFISHEISNEVGILSTNEEFLRTDDAEEMKALIKQVKRANSVRPTPPKENDETNFAFNGNGLDSFRSSNREVRTGSPDITQSHVDNESRITHISQAESSKPTSKPKRVRTATKKKIPAFSDSTVISDAENELGDNNDAQDDVDIDENDIIMVSTDEEDASYGLLNGRKTKTKTRPAASTKTASRRGKGRASRTPKTDIAGSALAKARK
Interaction with Mer2 in pulldown (in words) (HisSUMO-Mer2 (wild type)): strongly decreased the interaction
Yeast two-hybrid interaction with Mer2 (in words) (Mer2): abolished the interaction
